This note sets out measurements from patent US20090012268A1 (B R A H M S, published 2009).

Assay [1] has as its target T1, recombinant human TSHr preparation immobilized on coated tubes (human, UniProt P16473 21-764, limits assumed).
T1 construct: also called hTSHr coated tubes; TSHr coated tubes
Put plainly: saturation with acridinium ester labelled antibody on hTSHr coated tubes; Kd1 of a biphasic curve. On the procedure: (§1) 5 ng (−200 000 RLU) of acridinium ester labelled monoclonal antibody (20) and different amounts of unlabeled antibodies were added in 0.3 ml of buffer A to TSHr coated tubes. Tubes were incubated for 24 h at room temperature, washed four times with 2 ml washing buffer, and RLU were measured in a luminometer.
(§2) The purified antibodies were subsequently labelled with acridinium ester and used in saturation experiments on hTSHr coated tubes.

Assay [2] concerns the target T1, recombinant human TSHr preparation …. Put plainly: displacement of 50% of 125I-labeled TSH from TSHr coated tubes. On the procedure:
Selected mAbs and Fabs (generated after papain digestion) were purified by Sepharose-protein A affinity chromatography (ImmunoPure™ Fab preparation Kit, Pierce, Perbio Science, Belgium) and tested for their ability to stimulate cAMP production using JP26 CHO cells in normal isotonic medium (see above). For TBII activity determination, different amounts of antibodies were added in 250 μl of buffer A (20 mM Hepes-NaOH, pH 7.5, 50 mM NaCl, 1% BSA, 10% glycerol, 2 mg/ml mouse IgG) to hTSHr coated tubes. […] The tubes were incubated for 2 h at room temperature, washed four times with 2 ml washing buffer (8 mM Tris-Hl, 60 mM NaCl, 0.02% Tween-20, pH 7.5), and bound radioactivity was counted.

Another assay addresses mouse TSHr (mouse, UniProt P47750 22-764). In words: cell-based or functional assay.
In assay [3] the target is human TSH receptor expressed on cells (human, UniProt P16473 21-764). In words: cell-based or functional assay.
Assay [4] concerns the target T1, recombinant human TSHr preparation …. In words: saturation with acridinium ester labelled antibody on hTSHr coated tubes; Kd2 of a biphasic curve. How it is done:
as §1, §2

Substitutions are numbered along the chain they refer to. Where “and” joins values, the source holds several entries; their conditions need not be identical. Equal entries are not always repeated.

By Kd is commonly meant the free concentration of one partner at which half of the binding sites on the other are occupied at equilibrium, for simple one-to-one binding. As a reminder, the IC50 is the point on the concentration scale where inhibition reaches its midpoint.

mouse TSHr, sequence (P47750 22-764): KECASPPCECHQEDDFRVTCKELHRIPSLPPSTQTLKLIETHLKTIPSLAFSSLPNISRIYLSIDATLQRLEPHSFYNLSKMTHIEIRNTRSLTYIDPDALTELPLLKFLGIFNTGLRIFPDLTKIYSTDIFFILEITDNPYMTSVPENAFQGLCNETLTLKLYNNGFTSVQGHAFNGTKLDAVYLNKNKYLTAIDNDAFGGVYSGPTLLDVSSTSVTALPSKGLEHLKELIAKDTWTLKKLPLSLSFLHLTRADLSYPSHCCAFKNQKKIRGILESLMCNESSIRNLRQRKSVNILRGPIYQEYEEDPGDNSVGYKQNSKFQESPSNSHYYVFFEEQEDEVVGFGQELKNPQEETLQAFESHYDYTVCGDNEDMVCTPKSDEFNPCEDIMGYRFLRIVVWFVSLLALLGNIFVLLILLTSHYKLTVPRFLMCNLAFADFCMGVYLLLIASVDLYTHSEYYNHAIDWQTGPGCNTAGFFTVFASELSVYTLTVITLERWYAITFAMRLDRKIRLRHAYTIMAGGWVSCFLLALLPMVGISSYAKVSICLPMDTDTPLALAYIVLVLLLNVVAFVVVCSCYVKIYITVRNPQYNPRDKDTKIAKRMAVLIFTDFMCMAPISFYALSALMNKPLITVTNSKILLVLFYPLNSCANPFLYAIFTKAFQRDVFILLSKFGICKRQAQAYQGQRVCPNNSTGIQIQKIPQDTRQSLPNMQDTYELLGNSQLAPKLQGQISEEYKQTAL

B1: IRI-SAb2 (antibody, IgG2a, V domains shown)
VH: SCKASGYSFTAYTMNWVKQSHGKNLEWIGLINPFNGGTNYNQKFEGKATLTVDKSSTTAYMELLSLTSEDSAVYYCARRVWDYFDYWGQGTSLTVSS
VL: EGSITCKASQNVGTNVAWYQQKGGQSLELLIYGASNRHTGVPDRFTGRGSGTDFTLTITNVQSEDMTNYFCEQYSRYPLTFGAG
notes: Mouse monoclonal IgG2a from a hybridoma; also called mAb IRI-SAb2; DSM ACC2664
With B1, the Kd was determined as 0.07 nM in assay [1] and 1.23 nM in assay [4]. In addition, the IC50 in assay [2] was 0.3 µg/mL and 2 nM. For the same molecule, the “EC50 of cAMP production in MT3 cells, normal-salt medium” value with mouse TSHr came to 1.3 nM. Besides, the “EC50 of cAMP production in JP26 cells, normal salt medium (IgG)” value in assay [3] was 2.75 nM.

B2: IRI-SAb2 Fab fragment (Fab, V domains shown)
VH: B1 VH
VL: B1 VL
As for B2, the “EC50 of cAMP production in JP26 cells (Fab)” value in assay [3] amounted to 1.2 nM.

B3: IRI-SAb3 Fab fragment (Fab, V domains shown)
VH: B1 VH with K23Y, F34Y, T38A, E45K, T57S, S92T
VL: B1 VL with G23V, N36S, R48S, N60D, R76S
As for B3, the “EC50 of cAMP production in JP26 cells (Fab)” value in assay [3] was determined as 74 nM.

B4: IRI-SAb3 (antibody, IgG1, V domains shown)
VH: B1 VH with K23Y, F34Y, T38A, E45K, T57S, S92T
VL: B1 VL with G23V, N36S, R48S, N60D, R76S
On to B4, for which the “EC50 of cAMP production in MT3 cells, normal-salt medium” value with mouse TSHr stood at 3.8 nM.
